US20220073598A1 (KYMAB, published 2022)

T1: human BMP6 (Peprotech), reduced monomer on SDS-PAGE (human, UniProt P22004 397-513)
T1 construct: also called reduced BMP6 monomers; 18 kDa monomer
T1 sequence: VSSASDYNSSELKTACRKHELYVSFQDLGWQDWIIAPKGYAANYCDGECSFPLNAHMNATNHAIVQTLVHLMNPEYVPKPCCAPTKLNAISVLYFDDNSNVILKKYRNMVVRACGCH

T2: recombinant human BMP6 (Peprotech 120-06) (human, UniProt P22004 397-513)
T2 construct: Biotinylated and immobilised for SPR; also called hBMP6; Bone Morphogenetic Protein 6
T2 sequence: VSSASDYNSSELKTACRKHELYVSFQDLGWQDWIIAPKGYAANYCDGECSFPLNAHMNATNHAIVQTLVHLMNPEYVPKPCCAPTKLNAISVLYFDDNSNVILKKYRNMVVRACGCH


How the values were obtained:
[1] = target: T1, human BMP6 (Peprotech), reduced monomer …; assay: Western blot after reducing SDS-PAGE
Protocol: (§1) 2 μg/lane purified human BMP6 (Peprotech) separated by SDS-PAGE and stained with Coomassie blue (A) under reducing (R) and non-reducing (NR) conditions and Western blots from such gels blotted onto membranes and then probed with purified human anti-BMP6 antibodies as labelled.
(§2) Since BMP6 is a disulphide linked dimer the reducing condition should create monomers on the gel instead of dimers on the non-reduced gel.

[2] = target: T2, recombinant human BMP6 (Peprotech …); assay: Western blot after non-reducing SDS-PAGE
Protocol: as §1, §2

[3] = target: T2, recombinant human BMP6 (Peprotech …); assay: HTRF competition: unlabelled antibody titrated (11 points, top 3 µM) against labelled CL-58838 (10 nM) for binding to labelled human BMP6 (32 nM)

Binder | binding result [1] | binding result [2] | binding result [3]
Antibody B (antibody, human IgG1, lambda, V domains shown, also called anti-BMP6 Antibody B) VH: QVQLVESGGGLVKPGGSLRLSCAASGFTFSSYVVHWVRQAPGKGLEWVGRIRLETHGYAAEYAASVKGRFTISRDDSKNTLYLQMNSLKTEDTAVYYCARVERSKSGFDNWGQGTLVTVSS VL: QSVLTQPPSVSGAPGQRVTISCTGSSSNIGAGYSVHWYQQLPGTAPKLLIYGQSERPSGVPDRFSGSKSGTSASLAITGLQAEDEADYYCQSWDSSQTLVVFGGGTKLTVLG | binds | binds | 
CL-58756 (antibody, human IgG4 S228P, kappa, V domains shown) VH: QVQLVESGGGLVKPGGSLRLSCAASGFTFSDYYMSWIRQAPGKGLEWVSYISISGSTIYYADSVKGRFTISRDNAKNSLYLQMNSLRAEDTAVYYCARRSSGWYDYWGQGTLVTVSS VL: EIVLTQSPGTLSLSPGERATLSCRASQSVSSNYLAWYQQKPGQAPRLLIYGASIRATGIPDRFSGSGSGTDFTLTISRLEPEDFAVYCCHQYGSSPPTFGQGTKVEIKR |  |  | binds
CL-58722 (antibody, human IgG4 S228P, kappa, V domains shown) VH: QVQLVESGGGLVKPGGSLRLSCAASGFTFSDYYMSWIRQAPGKGLEWVSYISISGSTIYYADSVKGRFTISRDNAKNSLFLQMNSLRAEDTAVYYCARRSSGWYDYWGQGTLVTVSS VL: EIVLTQSPGTLSLSPGERATLSCRASQSVSSNYLAWYQQKPGQAPRLLIYGASIRATGIPDRFSGSGSGTDFTLTISRLEPEDFAVYSCHQYGSSPPTFGQGTKVEIKR |  |  | binds
CL-58713 (antibody, human IgG4 S228P, kappa, V domains shown) VH: QVQLVESGGGLVKPGGSLRLSCAASGFTFSDYYMSWIRQAPGKGLEWVSYISISGITIYYADSVKGRFTISRDNARNSLYLQMNSLRAEDTAVYYCARRSSGWYDYWGQGTLVTVSS VL: EIVLTQSPGTLSLSPGERATLSCRASQSVSYNYLAWYQQKPGQAPRLLIYGASIRATGIPDRFSGSGSGTDFTLTISRLEPEDFAVYCCHQYGSSPPTFGQGTKVEIKR |  |  | binds
